Assay results: patent US20240132589A1 (ONCORESPONSE, published 2024)
Values belong to the binder of their own block, whether it stands above or below them.

Experiments:
[1] = target: T1, Human LILRB2 on primary human myeloid cells (human, UniProt Q8N423 22-597); experiment: flow cytometry, AF647-conjugated antibody on human M0 macrophages (7 subjects), average
T1 construct: whole, on cells; the cell type is named under assay; also called LILRB2 on monocytes, M0 and M2c macrophages, myeloid dendritic cells, neutrophils
Description: (§1) Anti-LILRB2 antibodies were evaluated for their ability to bind myeloid cell subsets expressing LILRB2, including monocytes, M0 macrophages, and M2c macrophages. M2c macrophages are used as a surrogate for tumor-associated macrophages, a suppressive macrophage commonly found in the tumor microenvironment. Frozen monocytes were removed from storage in vapor phase liquid nitrogen and thawed by gentle swirling in a water bath at 37° C., then resuspended in X-VIVO™ 15 media with 10% FBS. PBMC were placed in a 15 mL conical tube and centrifuged at 300×g for 5 minutes, then supernatant was removed. Cells were resuspended in Assay Medium (X-VIVO™ 15+10% FBS) at a cell density of 2.5×10⁵ cells/mL. Cells were plated into 96-well flat bottom plates at 100 μL/well (25K cells/well). M0 and M2c macrophages were generated as described in Example 10 and collected from flasks by incubation for 15 min at RT in Macrophage Detachment Solution DXF, then removed from the flask into X-VIVO™ 15 medium. Following centrifugation, the cells were resuspended in FACS Blocking Buffer D (FACS Buffer+10% FBS+0.5 mg/mL human IgG1) then incubated at 4° C. for 30 minutes. […]

[2] = target: T1, Human LILRB2 on primary human myeloid …; experiment: flow cytometry, AF647-conjugated antibody on human M2c macrophages (10 subjects), average
Description: as §1

[3] = target: T2, Recombinant human LILRB2 protein (ELISA antigen) (human, UniProt Q8N423 22-460); experiment: ELISA, plate-coated recombinant human LILRB2
T2 construct: also called LILRB2-His; recombinant LILRB2
Description: To confirm binding to human and cynomolgus LILRB2, antibodies in supernatants were evaluated for binding by enzyme-linked immunosorbent assay (ELISA). Recombinant LILRB2 proteins (human: SEQ ID NO: 48; cynomolgus) were diluted in PBS to 2 μg/mL and added to 384-well high-binding ELISA plates (Greiner Bio-One Microlon™) at 25 μL/well and incubated at 4° C. overnight. The plates were washed three times with Wash Buffer (0.05% Tween® 20 in PBS), using a microplate washer and then blocked with 90 μL/well of ELISA Blocking Buffer A (1% BSA in PBS) for 1 hour at room temperature (RT). After blocking, 25 μL/well of LILRB2 antibodies or isotype control were added to the plates and incubated for 1 hour at RT. After primary antibody binding, plates were washed three times with Wash Buffer using a microplate washer. Secondary detection antibody (HRP-goat anti-rabbit Fab fragment) was diluted to 1:3000 in assay diluent (1% BSA in PBS) and 25 μL/well was added to plates and incubated at RT protected from light for 1 hour. Following incubation, plates were washed four times with Wash Buffer, using a microplate washer. […] After development, the reaction was stopped by addition of 25 μL/well of 0.3 M HCl, and plates were read using an EnVision (Perkin Elmer) microplate reader at 450 nm. EC₅₀ values were calculated based on log concentration of the primary antibodies at optical density at 450 nm.

[4] = target: T3, Human LILRB2 on stably transduced HEK293T cells (human, UniProt Q8N423 22-597); experiment: flow cytometry, HEK293T cells stably expressing human LILRB2
T3 construct: Lentiviral transduction (G&P Biosciences LTV2992); also called HEK293T-LILRB2; LILRB2-expressing HEK293T cells
Description: To confirm binding of LILRB2 antibodies, flow cytometry binding assays were performed using HEK293T cells stably expressing human LILRB2 (Example 3). […] The B2A-IgG1 and B2A-IgG4 chimeras bound the LILRB2-expressing HEK293T cells, with equivalent EC₅₀ values of 0.21 nM and 0.30 nM respectively.
Select humanized variant antibodies were purified and tested for their ability to bind human LILRB2 by ELISA, using the method described in Example 2, and binding to HEK293T cells expressing human LILRB2, using the method described in Example 4. Representative data are shown for IgG4 variants in Table 6.

T1 sequence (Q8N423 22-597): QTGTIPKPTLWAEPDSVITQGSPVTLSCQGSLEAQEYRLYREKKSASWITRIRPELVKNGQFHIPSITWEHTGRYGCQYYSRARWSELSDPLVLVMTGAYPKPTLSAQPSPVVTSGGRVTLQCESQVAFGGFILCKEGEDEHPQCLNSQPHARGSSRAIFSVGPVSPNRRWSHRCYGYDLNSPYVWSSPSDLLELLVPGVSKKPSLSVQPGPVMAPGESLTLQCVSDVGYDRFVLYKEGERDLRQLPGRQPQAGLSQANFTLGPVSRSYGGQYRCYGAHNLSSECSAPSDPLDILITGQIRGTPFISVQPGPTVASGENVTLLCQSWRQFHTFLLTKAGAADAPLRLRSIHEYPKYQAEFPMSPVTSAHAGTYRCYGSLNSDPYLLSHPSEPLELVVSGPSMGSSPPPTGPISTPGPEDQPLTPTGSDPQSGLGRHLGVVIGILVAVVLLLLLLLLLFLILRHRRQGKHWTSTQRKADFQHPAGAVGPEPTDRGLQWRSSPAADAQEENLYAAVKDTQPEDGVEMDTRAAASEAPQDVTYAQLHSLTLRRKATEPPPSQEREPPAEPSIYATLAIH
T3 sequence (Q8N423 other isoform, or with tags, fused parts or gaps limits assumed): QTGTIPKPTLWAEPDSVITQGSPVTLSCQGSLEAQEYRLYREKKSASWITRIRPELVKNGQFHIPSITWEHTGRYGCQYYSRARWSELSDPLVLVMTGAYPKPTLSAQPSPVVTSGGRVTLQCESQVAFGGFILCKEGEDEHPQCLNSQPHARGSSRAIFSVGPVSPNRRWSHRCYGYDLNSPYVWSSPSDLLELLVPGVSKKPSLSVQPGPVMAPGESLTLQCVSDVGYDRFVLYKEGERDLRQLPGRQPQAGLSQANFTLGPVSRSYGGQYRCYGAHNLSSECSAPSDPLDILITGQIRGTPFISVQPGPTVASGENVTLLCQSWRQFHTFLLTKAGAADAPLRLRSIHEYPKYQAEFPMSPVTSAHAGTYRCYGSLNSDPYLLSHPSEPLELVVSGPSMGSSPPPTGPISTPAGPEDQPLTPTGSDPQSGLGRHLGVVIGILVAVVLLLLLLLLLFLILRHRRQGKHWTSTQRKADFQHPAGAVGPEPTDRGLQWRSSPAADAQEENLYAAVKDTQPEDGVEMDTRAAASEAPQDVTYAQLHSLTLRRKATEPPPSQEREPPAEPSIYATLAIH
T2 sequence (Q8N423 other isoform, or with tags, fused parts or gaps limits assumed): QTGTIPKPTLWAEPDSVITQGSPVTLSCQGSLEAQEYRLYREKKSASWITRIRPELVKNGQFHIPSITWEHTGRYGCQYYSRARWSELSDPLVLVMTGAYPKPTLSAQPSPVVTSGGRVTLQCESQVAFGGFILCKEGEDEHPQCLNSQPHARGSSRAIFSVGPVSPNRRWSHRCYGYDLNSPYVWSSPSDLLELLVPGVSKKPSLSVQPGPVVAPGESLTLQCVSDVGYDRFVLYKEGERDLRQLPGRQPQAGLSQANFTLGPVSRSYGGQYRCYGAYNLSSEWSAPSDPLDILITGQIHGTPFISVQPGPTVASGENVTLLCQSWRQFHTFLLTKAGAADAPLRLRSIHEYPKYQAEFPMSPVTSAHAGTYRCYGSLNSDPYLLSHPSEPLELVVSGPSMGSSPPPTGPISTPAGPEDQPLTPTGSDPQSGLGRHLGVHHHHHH

EC50 [1]: 0.0748 µg/mL | EC50 [2]: 0.0243 µg/mL
B1: B2H1-55 (antibody, V domains shown)
VH: EVQLLESGGGLVQPGTSLTLSCAASGFSLSTYAMSWVRQAPGKGLEWIGWIYNDGSTYYAAWAKGRFTISKDTSKTTLYLQITSLRAEDTATYFCAREGDYIGYFNIWGQGTLVTVSS
VL: DVVMTQTPSSVSAALGGTVTIKCQASQSIGSNLAWYQLKPGQRPKLLIYAAATLASGGSSRFKGSGSGTDFTLTISSLEPADAATYYCQSYVSGSSDVAFGGGTEVVVK
notes: Humanized variant, human IgG1 / kappa; also called humanized variant B2H1-55; humanized LILRB2 antibody B2H1-55

EC50 [3]: 0.00381 µg/mL
B2: B2A-IgG1 (antibody)
heavy: not shown
light: DVVMTQTPSSVSAALGGTVTIKCQASQSIGSNLAWYQLKPGQRPKLLIYAAATLASGGSSRFKGSGSGTDFTLTISDLECADAATYYCQSYVSGSSDVAFGGGTEVVVKRTVAAPSVFIFPPSDEQLKSGTASVVCLLNNFYPREAKVQWKVDNALQSGNSQESVTEQDSKDSTYSLSSTLTLSKADYEKHKVYACEVTHQGLSSPVTKSFNRGEC
notes: Rabbit variable regions on human IgG1 / kappa constant regions; AF647-conjugated in some flow assays; also called B2A-IgG1 chimera; anti-LILRB2 B2A-IgG1

BMAX [gMFI] [4]: 12100 gMFI | EC50 [4]: 0.00034 µg/mL
B3: B2A-IgG4 (antibody)
heavy: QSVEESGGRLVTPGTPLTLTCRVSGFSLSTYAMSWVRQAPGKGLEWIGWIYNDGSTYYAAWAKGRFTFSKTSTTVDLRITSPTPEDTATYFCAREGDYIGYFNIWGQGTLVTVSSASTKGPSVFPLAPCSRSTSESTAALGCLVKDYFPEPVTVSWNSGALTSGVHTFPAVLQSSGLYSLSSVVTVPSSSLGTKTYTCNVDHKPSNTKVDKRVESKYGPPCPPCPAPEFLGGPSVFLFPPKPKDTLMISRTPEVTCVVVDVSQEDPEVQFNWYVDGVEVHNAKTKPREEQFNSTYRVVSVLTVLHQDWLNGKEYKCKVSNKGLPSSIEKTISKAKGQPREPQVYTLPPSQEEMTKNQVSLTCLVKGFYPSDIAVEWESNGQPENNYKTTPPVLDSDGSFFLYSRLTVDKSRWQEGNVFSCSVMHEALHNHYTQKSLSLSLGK
light: DVVMTQTPSSVSAALGGTVTIKCQASQSIGSNLAWYQLKPGQRPKLLIYAAATLASGGSSRFKGSGSGTDFTLTISDLECADAATYYCQSYVSGSSDVAFGGGTEVVVKRTVAAPSVFIFPPSDEQLKSGTASVVCLLNNFYPREAKVQWKVDNALQSGNSQESVTEQDSKDSTYSLSSTLTLSKADYEKHKVYACEVTHQGLSSPVTKSFNRGEC
notes: Rabbit variable regions on human IgG4 / kappa constant regions; also called B2A-IgG4 chimera; Parent B2A-IgG4
